Measurements as given in patent US20260167699A1 (Chugai, published 2026).

How the values were obtained:
Assay in all cases: SPR; He Ab vs HeCon Ab (GpH7-A5/GpH7-B3/GpL16-k0)=100;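 note: surface plasmon resonance at 25 °C with the test antibody captured on a sensor chip via antigenic peptide, protein L or protein A/G and FcγR flowed over as analyte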
[1] = molecular target: T1, FcγRIIa(H) extracellular domain, C-terminal His tag (human, UniProt P12318 34-217)
T1 construct: extracellular domain; also called 2aH
T1 sequence: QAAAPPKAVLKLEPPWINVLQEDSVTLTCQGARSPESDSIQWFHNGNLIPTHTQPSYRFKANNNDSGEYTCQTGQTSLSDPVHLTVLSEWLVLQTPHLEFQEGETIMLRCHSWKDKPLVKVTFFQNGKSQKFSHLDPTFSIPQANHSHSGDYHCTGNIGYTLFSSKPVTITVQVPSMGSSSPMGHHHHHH

[2] = molecular target: T2, FcγRIIa(R) extracellular domain, C-terminal His tag (human, UniProt P12318 34-217)
T2 construct: extracellular domain; also called 2aR
T2 sequence: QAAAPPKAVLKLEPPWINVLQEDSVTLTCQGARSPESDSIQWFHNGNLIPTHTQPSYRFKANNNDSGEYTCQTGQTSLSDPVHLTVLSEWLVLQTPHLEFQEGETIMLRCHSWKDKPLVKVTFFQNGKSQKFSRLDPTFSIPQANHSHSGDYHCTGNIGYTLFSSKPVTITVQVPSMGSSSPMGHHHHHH

[3] = molecular target: T3, FcγRIa extracellular domain, C-terminal His tag (human, UniProt P12314 16-292)
T3 construct: extracellular domain; also called 1a

[4] = molecular target: T4, FcγRIIIa extracellular domain, C-terminal His tag (human, UniProt P08637 17-208)
T4 construct: extracellular domain; also called 3a

[5] = molecular target: T5, FcγRIIb extracellular domain, C-terminal His tag (human, UniProt P31994 43-217)
T5 construct: extracellular domain; also called 2b
T5 sequence: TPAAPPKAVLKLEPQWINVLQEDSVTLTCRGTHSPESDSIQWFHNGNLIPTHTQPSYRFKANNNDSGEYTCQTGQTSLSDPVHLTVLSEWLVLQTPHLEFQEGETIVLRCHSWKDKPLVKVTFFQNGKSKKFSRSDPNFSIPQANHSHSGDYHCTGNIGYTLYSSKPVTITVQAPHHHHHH

T3 sequence (P12314 other isoform, or with tags, fused parts or gaps): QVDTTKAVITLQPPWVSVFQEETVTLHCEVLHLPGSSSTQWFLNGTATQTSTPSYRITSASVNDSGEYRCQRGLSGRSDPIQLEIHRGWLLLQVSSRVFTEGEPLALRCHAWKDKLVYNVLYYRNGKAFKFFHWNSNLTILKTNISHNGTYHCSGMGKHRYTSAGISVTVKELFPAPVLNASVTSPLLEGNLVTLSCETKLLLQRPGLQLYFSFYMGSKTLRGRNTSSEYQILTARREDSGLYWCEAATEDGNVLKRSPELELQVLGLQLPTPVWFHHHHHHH
T4 sequence (P08637 other isoform, or with tags, fused parts or gaps): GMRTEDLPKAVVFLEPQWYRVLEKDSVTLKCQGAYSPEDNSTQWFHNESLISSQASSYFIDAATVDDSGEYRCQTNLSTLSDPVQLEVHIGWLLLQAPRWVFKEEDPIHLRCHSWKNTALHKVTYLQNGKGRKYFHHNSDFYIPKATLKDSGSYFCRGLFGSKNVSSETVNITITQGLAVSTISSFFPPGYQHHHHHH

B1: GpH7-A5/GpH7-B3 variant Q295_11K/GpL16-k0 (antibody, human IgG1, kappa)
heavy 1: not shown
heavy 2: not shown
light: DIVMTQSPLSLPVTPGEPASISCQASESLVHSNRNTYLHWYLQKPGQSPQLLIYKVSNRFSGVPDRFSGSGSGTDFTLKISRVEAEDVGVYYCSQNTHVPPTFGQGTKVEIERTVAAPSVFIFPPSDEQLKSGTASVVCLLNNFYPREAKVQWKVDNALQSGNSQESVTEQDSKDSTYSLSSTLTLSKADYEKHKVYACEVTHQGLSSPVTKSFNRGEC
notes: heterodimerized IgG1, one H chain mutated; also called He Ab; copies: 1 + 1 + 2
Q: With B1 as the binder, how does the “He/Con 2aH” value [1] read?
A: 102%

Q: What about the “He/Con 2aR” value [2] of the same binder?
A: 88.1%

Q: And the “He/Con 1a” value [3]?
A: 99.7%

Q: And the “He/Con 3a” value [4]?
A: 81.8%

Q: What about the “He/Con 2b” value [5] of the same binder?
A: 79%

B2: GpH7-A5/GpH7-B3 variant S298_01G/GpL16-k0 (antibody, human IgG1, kappa)
heavy 1: not shown
heavy 2: not shown
light: DIVMTQSPLSLPVTPGEPASISCQASESLVHSNRNTYLHWYLQKPGQSPQLLIYKVSNRFSGVPDRFSGSGSGTDFTLKISRVEAEDVGVYYCSQNTHVPPTFGQGTKVEIERTVAAPSVFIFPPSDEQLKSGTASVVCLLNNFYPREAKVQWKVDNALQSGNSQESVTEQDSKDSTYSLSSTLTLSKADYEKHKVYACEVTHQGLSSPVTKSFNRGEC
notes: as for B1
Q: How did the “He/Con 2aH” value [1] turn out when B2 was run?
A: 71.4%

Q: What about the “He/Con 2aR” value [2] of the same binder?
A: 94.5%

Q: What about the “He/Con 1a” value [3] of the same binder?
A: 100%

Q: And the “He/Con 3a” value [4]?
A: 74.9%

Q: And the “He/Con 2b” value [5]?
A: 81.2%

B3: GpH7-A5/GpH7-B3 variant S298_08L/GpL16-k0 (antibody, human IgG1, kappa)
heavy 1: not shown
heavy 2: not shown
light: DIVMTQSPLSLPVTPGEPASISCQASESLVHSNRNTYLHWYLQKPGQSPQLLIYKVSNRFSGVPDRFSGSGSGTDFTLKISRVEAEDVGVYYCSQNTHVPPTFGQGTKVEIERTVAAPSVFIFPPSDEQLKSGTASVVCLLNNFYPREAKVQWKVDNALQSGNSQESVTEQDSKDSTYSLSSTLTLSKADYEKHKVYACEVTHQGLSSPVTKSFNRGEC
notes: as for B1
Q: How did the “He/Con 2aH” value [1] turn out when B3 was run?
A: 83%

Q: What about the “He/Con 2aR” value [2] of the same binder?
A: 100%

Q: What about the “He/Con 1a” value [3] of the same binder?
A: 104%

Q: And the “He/Con 3a” value [4]?
A: 69.2%

Q: What about the “He/Con 2b” value [5] of the same binder?
A: 110%

B4: GpH7-A5/GpH7-B3 variant Q295_14T/GpL16-k0 (antibody, human IgG1, kappa)
heavy 1: not shown
heavy 2: not shown
light: DIVMTQSPLSLPVTPGEPASISCQASESLVHSNRNTYLHWYLQKPGQSPQLLIYKVSNRFSGVPDRFSGSGSGTDFTLKISRVEAEDVGVYYCSQNTHVPPTFGQGTKVEIERTVAAPSVFIFPPSDEQLKSGTASVVCLLNNFYPREAKVQWKVDNALQSGNSQESVTEQDSKDSTYSLSSTLTLSKADYEKHKVYACEVTHQGLSSPVTKSFNRGEC
notes: as for B1
Q: Which results are given for B4?
A: He/Con 2aH [1]: 86.2%; He/Con 2aR [2]: 79.2%; He/Con 1a [3]: 101%; He/Con 3a [4]: 120%; He/Con 2b [5]: 74.9%

B5: GpH7-A5/GpH7-B3 variant S298_04F/GpL16-k0 (antibody, human IgG1, kappa)
heavy 1: not shown
heavy 2: not shown
light: DIVMTQSPLSLPVTPGEPASISCQASESLVHSNRNTYLHWYLQKPGQSPQLLIYKVSNRFSGVPDRFSGSGSGTDFTLKISRVEAEDVGVYYCSQNTHVPPTFGQGTKVEIERTVAAPSVFIFPPSDEQLKSGTASVVCLLNNFYPREAKVQWKVDNALQSGNSQESVTEQDSKDSTYSLSSTLTLSKADYEKHKVYACEVTHQGLSSPVTKSFNRGEC
notes: as for B1
Q: Which results are given for B5?
A: He/Con 2aH [1]: 75.5%; He/Con 2aR [2]: 80.4%; He/Con 1a [3]: 106%; He/Con 3a [4]: 77.6%; He/Con 2b [5]: 66.3%

B6: GpH7-A5/GpH7-B3 variant Q295_18N/GpL16-k0 (antibody, human IgG1, kappa)
heavy 1: not shown
heavy 2: not shown
light: DIVMTQSPLSLPVTPGEPASISCQASESLVHSNRNTYLHWYLQKPGQSPQLLIYKVSNRFSGVPDRFSGSGSGTDFTLKISRVEAEDVGVYYCSQNTHVPPTFGQGTKVEIERTVAAPSVFIFPPSDEQLKSGTASVVCLLNNFYPREAKVQWKVDNALQSGNSQESVTEQDSKDSTYSLSSTLTLSKADYEKHKVYACEVTHQGLSSPVTKSFNRGEC
notes: as for B1
Q: Which results are given for B6?
A: He/Con 2aH [1]: 87.8%; He/Con 2aR [2]: 81.7%; He/Con 1a [3]: 101%; He/Con 3a [4]: 85.7%; He/Con 2b [5]: 72.8%

B7: GpH7-A5/GpH7-B3 variant Q295_16H/GpL16-k0 (antibody, human IgG1, kappa)
heavy 1: not shown
heavy 2: not shown
light: DIVMTQSPLSLPVTPGEPASISCQASESLVHSNRNTYLHWYLQKPGQSPQLLIYKVSNRFSGVPDRFSGSGSGTDFTLKISRVEAEDVGVYYCSQNTHVPPTFGQGTKVEIERTVAAPSVFIFPPSDEQLKSGTASVVCLLNNFYPREAKVQWKVDNALQSGNSQESVTEQDSKDSTYSLSSTLTLSKADYEKHKVYACEVTHQGLSSPVTKSFNRGEC
notes: as for B1
Q: Which “He/Con 2aH” value [1] does the source give for B7 here?
A: 90.1%

Q: And the “He/Con 2aR” value [2]?
A: 80.5%

Q: What about the “He/Con 1a” value [3] of the same binder?
A: 101%

Q: What about the “He/Con 3a” value [4] of the same binder?
A: 80.2%

Q: And the “He/Con 2b” value [5]?
A: 70.3%

B8: GpH7-A5/GpH7-B3 variant S298_07I/GpL16-k0 (antibody, human IgG1, kappa)
heavy 1: not shown
heavy 2: not shown
light: DIVMTQSPLSLPVTPGEPASISCQASESLVHSNRNTYLHWYLQKPGQSPQLLIYKVSNRFSGVPDRFSGSGSGTDFTLKISRVEAEDVGVYYCSQNTHVPPTFGQGTKVEIERTVAAPSVFIFPPSDEQLKSGTASVVCLLNNFYPREAKVQWKVDNALQSGNSQESVTEQDSKDSTYSLSSTLTLSKADYEKHKVYACEVTHQGLSSPVTKSFNRGEC
notes: as for B1
Q: For B8, which “He/Con 2aH” value [1] is on record?
A: 84.9%

Q: And the “He/Con 2aR” value [2]?
A: 86.2%

Q: What about the “He/Con 1a” value [3] of the same binder?
A: 104%

Q: And the “He/Con 3a” value [4]?
A: 90.7%

Q: What about the “He/Con 2b” value [5] of the same binder?
A: 71.5%

B9: GpH7-A5/GpH7-B3 variant S298_02A/GpL16-k0 (antibody, human IgG1, kappa)
heavy 1: not shown
heavy 2: not shown
light: DIVMTQSPLSLPVTPGEPASISCQASESLVHSNRNTYLHWYLQKPGQSPQLLIYKVSNRFSGVPDRFSGSGSGTDFTLKISRVEAEDVGVYYCSQNTHVPPTFGQGTKVEIERTVAAPSVFIFPPSDEQLKSGTASVVCLLNNFYPREAKVQWKVDNALQSGNSQESVTEQDSKDSTYSLSSTLTLSKADYEKHKVYACEVTHQGLSSPVTKSFNRGEC
notes: as for B1
Q: With B9 as the binder, how does the “He/Con 2aH” value [1] read?
A: 74.3%

Q: And the “He/Con 2aR” value [2]?
A: 87.2%

Q: And the “He/Con 1a” value [3]?
A: 103%

Q: What about the “He/Con 3a” value [4] of the same binder?
A: 151%

Q: And the “He/Con 2b” value [5]?
A: 74.4%

B10: GpH7-A5/GpH7-B3 variant S298_06M/GpL16-k0 (antibody, human IgG1, kappa)
heavy 1: not shown
heavy 2: not shown
light: DIVMTQSPLSLPVTPGEPASISCQASESLVHSNRNTYLHWYLQKPGQSPQLLIYKVSNRFSGVPDRFSGSGSGTDFTLKISRVEAEDVGVYYCSQNTHVPPTFGQGTKVEIERTVAAPSVFIFPPSDEQLKSGTASVVCLLNNFYPREAKVQWKVDNALQSGNSQESVTEQDSKDSTYSLSSTLTLSKADYEKHKVYACEVTHQGLSSPVTKSFNRGEC
notes: as for B1
Q: What does the source list for B10?
A: He/Con 2aH [1]: 95.8%; He/Con 2aR [2]: 104%; He/Con 1a [3]: 111%; He/Con 3a [4]: 87.2%; He/Con 2b [5]: 103%

B11: GpH7-A5/GpH7-B3 variant S298_03V/GpL16-k0 (antibody, human IgG1, kappa)
heavy 1: not shown
heavy 2: not shown
light: DIVMTQSPLSLPVTPGEPASISCQASESLVHSNRNTYLHWYLQKPGQSPQLLIYKVSNRFSGVPDRFSGSGSGTDFTLKISRVEAEDVGVYYCSQNTHVPPTFGQGTKVEIERTVAAPSVFIFPPSDEQLKSGTASVVCLLNNFYPREAKVQWKVDNALQSGNSQESVTEQDSKDSTYSLSSTLTLSKADYEKHKVYACEVTHQGLSSPVTKSFNRGEC
notes: as for B1
Q: Which “He/Con 2aH” value [1] does the source give for B11 here?
A: 83.2%

Q: What about the “He/Con 2aR” value [2] of the same binder?
A: 82.5%

Q: What about the “He/Con 1a” value [3] of the same binder?
A: 106%

Q: And the “He/Con 3a” value [4]?
A: 103%

Q: What about the “He/Con 2b” value [5] of the same binder?
A: 65.4%

B12: GpH7-A5/GpH7-B3 variant Q295_13S/GpL16-k0 (antibody, human IgG1, kappa)
heavy 1: not shown
heavy 2: not shown
light: DIVMTQSPLSLPVTPGEPASISCQASESLVHSNRNTYLHWYLQKPGQSPQLLIYKVSNRFSGVPDRFSGSGSGTDFTLKISRVEAEDVGVYYCSQNTHVPPTFGQGTKVEIERTVAAPSVFIFPPSDEQLKSGTASVVCLLNNFYPREAKVQWKVDNALQSGNSQESVTEQDSKDSTYSLSSTLTLSKADYEKHKVYACEVTHQGLSSPVTKSFNRGEC
notes: as for B1
Q: How did the “He/Con 2aH” value [1] turn out when B12 was run?
A: 79.5%

Q: And the “He/Con 2aR” value [2]?
A: 73%

Q: And the “He/Con 1a” value [3]?
A: 100%

Q: What about the “He/Con 3a” value [4] of the same binder?
A: 90.4%

Q: And the “He/Con 2b” value [5]?
A: 63.8%

B13: GpH7-A5/GpH7-B3 variant Q295_15Y/GpL16-k0 (antibody, human IgG1, kappa)
heavy 1: not shown
heavy 2: not shown
light: DIVMTQSPLSLPVTPGEPASISCQASESLVHSNRNTYLHWYLQKPGQSPQLLIYKVSNRFSGVPDRFSGSGSGTDFTLKISRVEAEDVGVYYCSQNTHVPPTFGQGTKVEIERTVAAPSVFIFPPSDEQLKSGTASVVCLLNNFYPREAKVQWKVDNALQSGNSQESVTEQDSKDSTYSLSSTLTLSKADYEKHKVYACEVTHQGLSSPVTKSFNRGEC
notes: as for B1
Q: Which “He/Con 2aH” value [1] does the source give for B13 here?
A: 89.3%

Q: And the “He/Con 2aR” value [2]?
A: 82%

Q: And the “He/Con 1a” value [3]?
A: 100%

Q: And the “He/Con 3a” value [4]?
A: 81.5%

Q: What about the “He/Con 2b” value [5] of the same binder?
A: 73.3%
